The target of one series is PARP1 R865A;HPF1 (human?;human, UniProt P09874;Q9NWY4 1-1014;1-346, R865A|). Description: fluorescence polarization; 20 uM HPF1; no further increase vs R865A alone (P=0.087, ns); SPR: 25 mM HEPES pH 7.4, 250 mM NaCl, 0.1 mM TCEP, 1 mM EDTA, 0.05% Tween20 (+/- 5 uM EB47); FP: 5 nM probe, 1.56-400 nM PARP1, buffer not stated; HXMS: 10 mM HEPES pD 7.0, 150 mM NaCl, RT. Conditions: protein: recombinant;recombinant; tags: N-terminal His6;none (SMT sumo-like His-tag removed with ULP1); copies: 1;1; label: internal FAM (GCTGAGC FAM-TTCTGG...); dumbbell, two hairpins, central nick. (In general: Fluorescence polarisation rises when a labelled molecule tumbles more slowly, as on binding a larger partner.)

For a further series, the target named is PARP1 R865A (UniProt P09874 1-1014, R865A). Description: fluorescence polarization; without HPF1; P=0.000039; SPR: 25 mM HEPES pH 7.4, 250 mM NaCl, 0.1 mM TCEP, 1 mM EDTA, 0.05% Tween20 (+/- 5 uM EB47); FP: 5 nM probe, 1.56-400 nM PARP1, buffer not stated; HXMS: 10 mM HEPES pD 7.0, 150 mM NaCl, RT. As to conditions: protein: recombinant; tags: N-terminal His6; label: internal FAM (GCTGAGC FAM-TTCTGG...); dumbbell, two hairpins, central nick.

In a further series the target is PARP1 WT (UniProt P09874 1-1014). In words: fluorescence polarization; without HPF1; Kd only in Fig. 6f; SPR: 25 mM HEPES pH 7.4, 250 mM NaCl, 0.1 mM TCEP, 1 mM EDTA, 0.05% Tween20 (+/- 5 uM EB47); FP: 5 nM probe, 1.56-400 nM PARP1, buffer not stated; HXMS: 10 mM HEPES pD 7.0, 150 mM NaCl, RT. As to conditions: protein: recombinant; tags: N-terminal His6; label: internal FAM (GCTGAGC FAM-TTCTGG...); dumbbell, two hairpins, central nick.

The next series deals with PARP1 WT;HPF1 (human?;human, UniProt P09874;Q9NWY4 1-1014;1-346, |). Description: fluorescence polarization; 20 uM HPF1; P=0.014; SPR: 25 mM HEPES pH 7.4, 250 mM NaCl, 0.1 mM TCEP, 1 mM EDTA, 0.05% Tween20 (+/- 5 uM EB47); FP: 5 nM probe, 1.56-400 nM PARP1, buffer not stated; HXMS: 10 mM HEPES pD 7.0, 150 mM NaCl, RT. Conditions: protein: recombinant;recombinant; tags: N-terminal His6;none (SMT sumo-like His-tag removed with ULP1); copies: 1;1; label: internal FAM (GCTGAGC FAM-TTCTGG...); dumbbell, two hairpins, central nick.
Chain of PARP1 WT;HPF1 (P09874 whole entry, chain 1 of 2): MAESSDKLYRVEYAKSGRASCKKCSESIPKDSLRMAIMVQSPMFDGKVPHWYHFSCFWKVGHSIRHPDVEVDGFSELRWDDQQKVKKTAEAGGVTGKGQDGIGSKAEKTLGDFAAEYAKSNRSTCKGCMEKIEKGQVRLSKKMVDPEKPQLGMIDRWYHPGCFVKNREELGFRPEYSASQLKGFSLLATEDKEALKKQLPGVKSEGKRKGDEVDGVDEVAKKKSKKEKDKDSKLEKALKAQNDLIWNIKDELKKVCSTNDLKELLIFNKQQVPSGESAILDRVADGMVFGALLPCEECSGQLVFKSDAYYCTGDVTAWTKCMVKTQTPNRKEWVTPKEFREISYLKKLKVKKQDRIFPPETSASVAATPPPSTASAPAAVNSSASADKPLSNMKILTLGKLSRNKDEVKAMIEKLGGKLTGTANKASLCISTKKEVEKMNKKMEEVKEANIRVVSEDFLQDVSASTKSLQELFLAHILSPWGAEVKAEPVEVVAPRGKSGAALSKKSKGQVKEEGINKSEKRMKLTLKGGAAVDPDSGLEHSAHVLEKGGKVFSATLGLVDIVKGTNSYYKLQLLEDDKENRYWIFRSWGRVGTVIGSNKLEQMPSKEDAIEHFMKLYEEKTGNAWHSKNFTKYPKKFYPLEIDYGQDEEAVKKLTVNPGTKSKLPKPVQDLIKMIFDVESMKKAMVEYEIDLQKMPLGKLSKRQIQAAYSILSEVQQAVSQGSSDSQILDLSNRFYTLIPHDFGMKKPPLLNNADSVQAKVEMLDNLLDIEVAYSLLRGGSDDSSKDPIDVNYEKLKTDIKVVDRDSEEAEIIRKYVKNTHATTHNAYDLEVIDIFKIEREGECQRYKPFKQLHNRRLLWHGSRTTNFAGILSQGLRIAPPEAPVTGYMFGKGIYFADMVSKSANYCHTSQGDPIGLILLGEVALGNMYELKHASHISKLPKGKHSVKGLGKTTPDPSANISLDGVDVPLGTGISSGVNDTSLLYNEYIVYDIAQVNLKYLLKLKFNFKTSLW
Chain of PARP1 WT;HPF1 (Q9NWY4 whole entry, chain 2 of 2): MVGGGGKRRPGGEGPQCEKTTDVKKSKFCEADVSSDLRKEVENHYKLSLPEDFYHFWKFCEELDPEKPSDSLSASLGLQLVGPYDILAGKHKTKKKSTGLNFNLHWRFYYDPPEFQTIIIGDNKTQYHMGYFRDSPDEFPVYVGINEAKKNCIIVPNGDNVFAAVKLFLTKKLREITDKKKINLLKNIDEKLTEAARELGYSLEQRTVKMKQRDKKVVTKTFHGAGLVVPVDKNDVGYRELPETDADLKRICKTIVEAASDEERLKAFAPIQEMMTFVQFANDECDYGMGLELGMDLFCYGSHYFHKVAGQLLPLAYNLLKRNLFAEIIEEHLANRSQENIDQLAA

Chain of PARP1 WT (P09874 whole entry): as the sequence (P09874 whole entry, chain 1 of 2) above
Chain of PARP1 R865A (P09874 whole entry R865A): as the sequence (P09874 whole entry, chain 1 of 2) above, with R865A counted along it
Chain of PARP1 R865A;HPF1 (P09874 whole entry R865A, chain 1 of 2): as the sequence (P09874 whole entry, chain 1 of 2) above, with R865A counted along it
Chain of PARP1 R865A;HPF1 (Q9NWY4 whole entry, chain 2 of 2): as the sequence (Q9NWY4 whole entry, chain 2 of 2) above

Regarding GCTGAGCTTCTGGTGAAGCTCAGCTCGCGGCAGCTGGTGCTGCCGCGA (structured_DNA) [FAM dumbbell with central nick (FP)], the binding result with PARP1 R865A;HPF1 and with PARP1 WT was “binds” in each case. The binding signal in the series with PARP1 R865A is 4 fold higher affinity than PARP1 WT; with PARP1 WT;HPF1 it was ~2 fold higher affinity than PARP1 WT alone.

(Values after PMC8602370, “HPF1 dynamically controls the PARP1/2 balance between initiating and elongating ADP-ribose modifications”.)
